Assay results published in PMC3285272 (Cell, 2012).

Legend:
Assay in all cases: pull-down
[1] = biological target: T1, γζ-COP lacking the C-terminal appendage domain of γ-COP (γ-COP 1–617) (B. taurus, UniProt P53620 1-617; P35604 1-177)
T1 sequence (looked up) 1: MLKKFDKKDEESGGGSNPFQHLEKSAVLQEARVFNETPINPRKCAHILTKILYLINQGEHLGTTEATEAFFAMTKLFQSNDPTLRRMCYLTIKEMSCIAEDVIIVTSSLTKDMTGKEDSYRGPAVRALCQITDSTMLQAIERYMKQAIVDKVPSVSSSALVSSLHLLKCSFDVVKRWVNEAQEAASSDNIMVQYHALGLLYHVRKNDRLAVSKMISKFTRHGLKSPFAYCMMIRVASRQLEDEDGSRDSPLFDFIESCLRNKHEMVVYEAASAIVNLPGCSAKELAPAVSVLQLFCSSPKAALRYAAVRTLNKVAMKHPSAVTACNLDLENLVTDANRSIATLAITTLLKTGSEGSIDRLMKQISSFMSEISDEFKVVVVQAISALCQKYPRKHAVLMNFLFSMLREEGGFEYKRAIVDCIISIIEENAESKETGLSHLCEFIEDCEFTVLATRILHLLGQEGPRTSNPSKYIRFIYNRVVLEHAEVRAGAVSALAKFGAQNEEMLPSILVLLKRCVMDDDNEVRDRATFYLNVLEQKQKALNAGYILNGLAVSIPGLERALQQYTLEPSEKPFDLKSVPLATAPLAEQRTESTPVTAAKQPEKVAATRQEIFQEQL
T1 sequence (looked up) 2: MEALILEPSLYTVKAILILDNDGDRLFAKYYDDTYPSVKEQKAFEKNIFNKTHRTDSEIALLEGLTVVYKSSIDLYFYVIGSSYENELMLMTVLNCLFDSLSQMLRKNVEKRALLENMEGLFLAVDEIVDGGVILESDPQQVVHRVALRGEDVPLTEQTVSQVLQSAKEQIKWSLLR

[2] = biological target: T2, βδ-COP dimer with full-length β-COP L124E (R. norvegicus | B. taurus, UniProt P23514 1-953; P53619 1-511, L124E)
T2 sequence (looked up) 1: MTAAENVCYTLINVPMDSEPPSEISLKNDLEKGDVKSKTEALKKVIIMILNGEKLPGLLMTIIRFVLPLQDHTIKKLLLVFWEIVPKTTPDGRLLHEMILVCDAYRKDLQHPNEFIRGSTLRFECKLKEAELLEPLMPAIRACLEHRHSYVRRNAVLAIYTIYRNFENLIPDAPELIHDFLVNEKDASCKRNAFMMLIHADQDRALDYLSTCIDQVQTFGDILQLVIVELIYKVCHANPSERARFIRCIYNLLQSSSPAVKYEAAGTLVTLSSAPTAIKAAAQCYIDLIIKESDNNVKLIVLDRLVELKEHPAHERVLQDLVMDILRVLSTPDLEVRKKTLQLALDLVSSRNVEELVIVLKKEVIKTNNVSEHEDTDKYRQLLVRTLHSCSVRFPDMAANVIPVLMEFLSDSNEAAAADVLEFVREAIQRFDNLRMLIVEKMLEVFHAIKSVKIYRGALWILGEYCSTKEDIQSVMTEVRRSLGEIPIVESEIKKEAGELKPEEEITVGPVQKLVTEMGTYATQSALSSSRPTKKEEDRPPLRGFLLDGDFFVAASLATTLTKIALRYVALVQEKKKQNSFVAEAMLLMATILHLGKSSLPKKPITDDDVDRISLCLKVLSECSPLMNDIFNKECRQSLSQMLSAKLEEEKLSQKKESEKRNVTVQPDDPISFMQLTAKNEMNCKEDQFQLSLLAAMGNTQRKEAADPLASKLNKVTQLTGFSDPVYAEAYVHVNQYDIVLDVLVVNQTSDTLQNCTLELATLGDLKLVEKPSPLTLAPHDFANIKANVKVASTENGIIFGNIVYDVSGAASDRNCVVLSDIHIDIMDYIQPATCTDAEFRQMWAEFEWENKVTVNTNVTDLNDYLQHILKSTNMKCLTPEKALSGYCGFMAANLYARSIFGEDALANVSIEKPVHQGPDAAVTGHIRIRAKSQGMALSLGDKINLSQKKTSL
T2 sequence (looked up) 2: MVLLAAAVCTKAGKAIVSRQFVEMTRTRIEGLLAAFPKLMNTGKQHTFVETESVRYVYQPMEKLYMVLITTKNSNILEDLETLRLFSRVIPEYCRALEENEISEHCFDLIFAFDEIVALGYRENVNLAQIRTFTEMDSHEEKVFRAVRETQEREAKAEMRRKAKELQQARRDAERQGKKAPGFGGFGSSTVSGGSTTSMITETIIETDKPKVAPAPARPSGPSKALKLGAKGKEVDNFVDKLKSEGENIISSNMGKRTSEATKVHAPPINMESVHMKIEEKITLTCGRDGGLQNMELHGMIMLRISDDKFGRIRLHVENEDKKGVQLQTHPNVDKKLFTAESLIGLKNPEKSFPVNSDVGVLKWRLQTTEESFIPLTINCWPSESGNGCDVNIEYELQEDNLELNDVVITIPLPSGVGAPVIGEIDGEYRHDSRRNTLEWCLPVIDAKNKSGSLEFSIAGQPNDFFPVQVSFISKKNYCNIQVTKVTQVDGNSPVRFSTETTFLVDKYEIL

[3] = biological target: full-length βδ/γζ-COP complex (R. norvegicus | B. taurus, UniProt P23514 1-953; P53619 1-511; P53620 1-874; P35604 1-177)

Measured: binding result

B1: S. cerevisiae Arf1 (residues 18–181) with a C-terminal GST tag (domain or fragment, UniProt P11076 18-181, looked up)
chain: MRILMVGLDGAGKTTVLYKLKLGEVITTIPTIGFNVETVQYKNISFTVWDVGGQDRIRSLWRHYYRNTEGVIFVVDSNDRSRIGEAREVMQRMLNEDELRNAAWLVFANKQDLPEAMSAAEITEKLGLHSIRNRPWFIQATCATSGEGLYEGLEWLSNSLKNST
binds: [1] | [2] | [3]
